Test results published in patent publication US20040152634A1, “Chemokine antagonists and uses thereof” (priority 2002, published 2004).
pKd, pKi: −log10 of the molar value. Read-outs that look alike come from different tables or passages of the source.

Columns and labels:
[1] = molecular target: T1, extracellular domain of the prolactin receptor (hPRLbp) (Homo sapiens, UniProt P16471); settings: cited from earlier work; for pKd: read-out: Kd, binding to hPRLbp
T1 construct: with the extracellular domain of the prolactin receptor (hPRLbp)
T1 sequence (P16471 25-234 limits assumed): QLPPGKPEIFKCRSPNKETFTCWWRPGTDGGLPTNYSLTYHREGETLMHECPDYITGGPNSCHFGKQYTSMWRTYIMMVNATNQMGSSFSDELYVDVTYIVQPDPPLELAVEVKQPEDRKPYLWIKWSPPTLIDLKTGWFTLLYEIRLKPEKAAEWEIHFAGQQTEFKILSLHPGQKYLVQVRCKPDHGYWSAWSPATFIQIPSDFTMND

[2] = molecular target: IL-8 (CXCL8, interleukin 8) (UniProt P10145); test: inhibition of 125I-IL-8 binding to neutrophil membranes; with 100 uM ZnCl2 against without Zn(II)
[3] = molecular target: IL-8 (CXCL8, interleukin 8) (UniProt P10145); test: inhibition of 125I-IL-8 binding to neutrophil membranes, in the presence of 100 uM ZnCl2
[4] = molecular target: IL-8 (CXCL8, interleukin 8) (UniProt P10145); test: inhibition of 125I-IL-8 binding to neutrophil membranes, (II)

Chain of IL-8 (CXCL8, interleukin 8) (P10145 28-99 limits assumed): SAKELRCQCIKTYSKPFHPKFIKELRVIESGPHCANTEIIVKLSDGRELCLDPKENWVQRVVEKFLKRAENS

fold better inhibition with Zn(II) than in the absence of Zn(II) [2] [fold] | pKi [3] | pKi [4] | Substance | pKd ([1]; in the absence of Zn(II)) | pKd ([1]; in the presence of Zn(II)) | increase of binding affinity with Zn(II) ([1]; presence vs absence of Zn(II))
 |  |  | hGH: human growth hormone, binds the extracellular domain of the prolactin receptor (hPRLbp) | 6.57 | 10.48 | about 8,000 fold
125 | 5.95 | 3.85 | synthetic N-terminal peptide CXCR1 (21-residues in length in which Met 12 was replaced by a His to create a Zn(II) binding site) |  |  | 
